Results as given in patent publication US7129053 (DAKOCYTOMATION DENMARK A S, dated 2006).

Biological target: T1, H. pylori catalase (Helicobacter pylori, UniProt P77872 1-505)
T1 construct: mature; also called katalase; immunizing antigen
T1 sequence (looked up): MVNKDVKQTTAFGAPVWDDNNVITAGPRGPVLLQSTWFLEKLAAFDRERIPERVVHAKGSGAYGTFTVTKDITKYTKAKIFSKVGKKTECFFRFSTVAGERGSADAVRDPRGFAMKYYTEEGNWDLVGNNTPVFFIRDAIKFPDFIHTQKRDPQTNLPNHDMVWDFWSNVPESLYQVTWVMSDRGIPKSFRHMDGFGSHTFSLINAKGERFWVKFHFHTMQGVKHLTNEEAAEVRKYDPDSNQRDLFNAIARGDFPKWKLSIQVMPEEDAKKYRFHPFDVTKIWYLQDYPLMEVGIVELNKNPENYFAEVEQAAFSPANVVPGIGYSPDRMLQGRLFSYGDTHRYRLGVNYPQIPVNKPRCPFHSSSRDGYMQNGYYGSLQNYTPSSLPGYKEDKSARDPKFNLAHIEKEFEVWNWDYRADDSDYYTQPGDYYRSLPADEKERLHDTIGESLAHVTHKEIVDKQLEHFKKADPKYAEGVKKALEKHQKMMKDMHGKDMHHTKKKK
Experiment: SPR (BIAcore), catalase amine-coupled on CM5 chip, antibody 20-670 nM in flow
Procedure: Catalase was Immobilized through amine coupling on the dextrane matrix of the BIAcore CM5 sensor chip. For the activation of the dextrane matrix 45 μl of a 1:1-mixture of 0.05 M N-hydroxysuccinimide (NHS) and 0.2 M 1-ethyl-3-3-dimethylaminopropyl)carbodiimide (EDC) solution was conducted over the sensor chip at a flow rate of 5 μl/min. Then, the catalase (35 μl; 50 μg/ml in 10 mM sodium acetate, pH 5.0) were bound to the dextrane matrix. The remaining NHS ester was deactivated with 1 M ethanolamine (35 μl). Catalase that was not covalently bound to the dextrane matrix was removed by regenerating the sensor chip with HCl (10 mM; 15 μl).
By adding the catalase-specific monoclonal antibodies, these were made react with immobilized catalase and the mass attachment to the detector was measured. Antibody solutions in different concentrations ranging from 20 to 670 nM were used. They were injected via the catalase immobilized on the sensor chip at a flow rate of 25 μl/min each.
The values for the rate constants of the adsorption ($kon$) and desorption ($koff$) of the antibody could be calculated (BIAevaluation software 3.0).

B1: monoclonal antibody HP25.6m/1B5 (antibody, IgG1, V domains shown)
VH: EVQLQQSGAELVKPGASVKLSCTSSGFNIKDTYVHWMKQRPEQGLEWIGKIDPANGKTKYDPIFQAKATMTADASSNTAYLQLSSLTSEDTAVYYCALPIYYASSWFAYWGQGTLVTVSA
VL: DIVMTQSHKFMSTSVGDRVSITCKASQDVGTSVAWYQQKPGHSPKLLIYWTSTRHTGVPDRFTGSGSGTDFILTISNVQSEDLADYFCQQYSSSPTFGGGAKVEIK
notes: also called HP25.6m1/1B5
For B1, the Kd was 0.681 nM, the koff was 3.86e-05 s⁻¹ and the kon was 56700 M⁻¹ s⁻¹.

B2: monoclonal antibody HP25.2m/2H10 (antibody, IgG2a, V domains shown)
VH: VQLLEQPGAELAKPGASVKMSCKASGYTFTNYWIHWVKQRPGQGLKWIGYINPATGSTSYNQDFQDRATLTADKSSTTAYMQLTSLTSEDSSVYYCAREGYDGFDSWGQGTTLTVSS
VL: ELVLTQSPAIMSASPGEKVTMTCSASSSVNYMYWYQQKSGTSPKRWIYDTSKLASGVPARFSGSGSGTSYSLTLSSMEAEDAATYYCQQWSSNPYTFGGGTKLEIK
notes: also called HP25.2m/2H10 (K10); HP25.2m/2Hallin (K10)
B2 showed a Kd of 0.271 nM, a koff of 3.9e-05 s⁻¹ and a kon of 144000 M⁻¹ s⁻¹.
